# Measured values published in US20050180952A1, “Methods for intradermal delivery of therapeutics agents” (priority 2003, published 2005).
# “Also recorded” adds a separate entry of the source.
# B1: IL-12: rmIL-12 (R&D Systems), interleukin-12 cytokine given in PBS solution (protein, UniProt P43431 23-215; P43432 23-335, looked up)
# Interleukin-12 subunit alpha: RVIPVSGPARCLSQSRNLLKTTDDMVKTAREKLKHYSCTAEDIDHEDITRDQTSTLKTCLPLELHKNESCLATRETSSTTRGSCLPPQKTSLMMTLCLGSIYEDLKMYQTEFQAINAALQNHNHQQIILDKGMLVAIDELMQSLNHNGETLRQKPPVGEADPYRVKMKLCILLHAFSTRVVTINRVMGYLSSA
# Interleukin-12 subunit beta: MWELEKDVYVVEVDWTPDAPGETVNLTCDTPEEDDITWTSDQRHGVIGSGKTLTITVKEFLDAGQYTCHKGGETLSHSHLLLHKKENGIWSTEILKNFKNKTFLKCEAPNYSGRFTCSWLVQRNMDLKFNIKSSSSSPDSRAVTCGMASLSAEKVTLDQRDYEKYSVSCQEDVTCPTAEETLPIELALEARQQNKYENYSTSFFIRDIIKPDPPKNLQMKPLKNSQVEVSWEYPDSWSTPHSYFSLKFFVRIQRKKEKMKETEEGCNQKGAFLVEKTSTEVQCKGGNVCVQAQDRYYNSSCSKWACVPCRVRS
# Legend:
# [1] = system: RSV; test: Virus challenge: viable virus in lung homogenates on Hep-2 monolayers; assay type: in vivo, Mice; conditions: single IN dose ~2.25 mg/Kg (15% of dose) 3 hours after infection with 1.3×10^5 PFU, 100 ul per well
# Procedure: Mice were challenged with 1.3×10^5 plaque forming units. Three hours after infection a test group was treated with a single dose of Palivizumab IN (˜2.25 mg/Kg) and a control group received saline. Three days after infection, lung tissue was collected and homogenized. The subsequent homogenates were dispensed onto Hep-2 monolayers and the cultures were monitored for evidence of viable virus. The total homogenate volume recovered from each animal was approximately 1.5 to 2 mls and the amount placed in each test well was 100 ul.
# [2] = system: RSV; test: Synagis plaque assay in vitro; assay type: cell-based; conditions: FIG. 8
# [3] = system: B 16F10 melanoma cells; test: Effects of routes of IL-12 administration on mortality of tumor-containing mice; assay type: in vivo, C57BL/6J mice; conditions: Day 28
# Procedure: (§1) C57BL/6J mice (Charles Rivers Labs, Inc) were inoculated SC with 1×10^6 B 16F10 melanoma cells (ATCC) on the upper right flank. One week following tumor inoculation (Day 7), the mice were randomized and treated with 100 ng rmIL-12 (R&D Systems) in 50 μL PBS solution through either ID or SC injections near tumor inoculation site, or an IP injection (n=25/condition). An additional condition of ID controls was run using 50 μL PBS solution alone. ID treatment was administered with a 34G, 1 mm needle using a modified mantoux method. SC and IP doses were given with standard 25G×¾″ needle. Treatment was continued every other day through Day 13 for a total of four doses. Tumor measurements in mm^2 (length×width) were collected on Days 7, 11, 14, 18, 21, 25 and 28. Blood samples were collected on Days 0, 14, 21 and 28 for IL-12 and IFN-gamma analysis. Draining lymph node and spleen tissue samples were collected from five animals in each condition on Days 14 and 24 for FACS analysis of CD49b (NK) cells. Mortality data were collected on 10 pre-selected animals that were not used for blood sampling or FACS analysis from each condition. Mortality was determined through either natural death or euthanasia due to tumor size of greater than 400 mm^2. Statistical data were calculated using a t-Test: Two-Sample Assuming Unequal Variances. See, e.g., Brunda, M., J. Exp. Med., 178: 1223-1230 (1993) and Leonard et al., Blood, 90: 2541-2548 (1997), both of which are incorporated herein by reference.
# [4] = system: CD49b (NK) cells; test: NK cells count in draining lymph node by FACS analysis; assay type: in vivo, C57BL/6J mice; conditions: ID delivery vs other conditions
# Procedure: C57BL/6J mice (Charles Rivers Labs, Inc) were inoculated SC with 1×10^6 B 16F10 melanoma cells (ATCC) on the upper right flank. One week following tumor inoculation (Day 7), the mice were randomized and treated with 100 ng rmIL-12 (R&D Systems) in 50 μL PBS solution through either ID or SC injections near tumor inoculation site, or an IP injection (n=25/condition). An additional condition of ID controls was run using 50 μL PBS solution alone. ID treatment was administered with a 34G, 1 mm needle using a modified mantoux method. SC and IP doses were given with standard 25G×¾″ needle. Treatment was continued every other day through Day 13 for a total of four doses. […] Mortality was determined through either natural death or euthanasia due to tumor size of greater than 400 mm^2. Statistical data were calculated using a t-Test: Two-Sample Assuming Unequal Variances. […]
# The right side superficial inguinal draining lymph node (DLN) and the spleen were excised individually from 5 mice per each treatment group into Petri dishes containing cold HBSS (Invitrogen Life Technologies, Carlsbad, Calif.) for the DLN. […] The washed cells were resuspended in 1 ml of cold FacsFlow buffer and kept on ice in the dark until analyzed by flow cytometry using a FACS Vantage SE. Cell analysis was designed to exclude B cells and quantify CD4+ cells, CD8+ cells, and CD49b+ (NK cells). […]
# [5] = system: B16F10 melanoma cells; test: Effects of ID and IP delivery on antitumor activity of IL-12 (10 and 100 ng), tumor size; assay type: in vivo, C57BL Mice; conditions: for tumor size increase: by day 21
# Procedure: (§2) C57BL Mice were inoculated subcutaneously (SC) with 1 million B16F10 melanoma cells (ATCC, Inc.). Treatment was initiated with IL-12 injections 7 days post-inoculation at two levels (10 and 100 ng) given as either an intraperitoneal (IP) or intradermal (ID) (tumor bearing side) dose. IL-12 doses were repeated every other day for a total of 4 treatments. As a control, the same volume of complete medium (PBS) was injected ID on the tumor bearing side. True negatives were also run in conjunction for serum and tissue samples (n=15/condition). Weights and tumor size were measured on days 7, 11, 14, 18 and 21. Blood samples were also collected at weekly intervals for IL-12 analysis. Two tumor diameters at right angles were measured with digital calipers, and the average tumor size was plotted with respect to days post inoculation with tumor cells.
# [6] = system: B16F10 melanoma cells; test: Effects of site of ID delivery (tumor side vs contralateral side) on antitumor activity of IL-12; assay type: in vivo, C57BL Mice
# Procedure: as §2, with “at” for “at two levels (10 and”, “ng” for “ng)”, “as” for “as either”, “ID dose on the tumor bearing” for “intraperitoneal (IP)”, “contralateral side” for “intradermal (ID) (tumor bearing side)”, “analysis. Draining lymph node and spleen samples were collected at 14 and 24 days for T cell, B cell and NK cell, and GP100 FACS analysis was performed.” for “analysis.”
# [7] = system: B 16F10 melanoma cells; test: Effects of routes of IL-12 delivery (ID, SC, IP) on tumor growth, 100 ng dose; assay type: in vivo, C57BL/6J mice
# Procedure: as §1
molecule,measurement,setting,value
"Palivizumab: RSV Specific MAB (Palivizumab), Synagis, humanized antibody",peak lung antibody concentration relative to any other delivery route,"IN 100 μl group, 15 mg/kg",at least 2 times
same,persistence of IN-delivered antibody in lung,IN delivery,short lived
same,"Lung Tissue Collected @ 72 Hours Post Infection (assayed straight), PFU",[1],no plaque forming units were observed; also recorded: No PFU Observed
same,concentration of antibody capable of blocking high numbers of virus,[2],6 µg/mL
B1,survivability compared to delivery through other routes or control,[3]; ID delivery,greater than 200%
same,surviving animals,[3]; ID delivery 100 ng,7 out of 10
same,surviving animals,[3]; IP delivery 100 ng,3 out of 10
same,surviving animals,[3]; SC delivery 100 ng,3 out of 10
same,NK cells in DLN,[4]; Day 14 (one day post regimen),increase in NK cells is apparent
same,NK cells in DLN,[4]; Day 24,relative increase above the other conditions
same,average tumor size,"[5]; 10 ng, ID, Day 11",77 mm^2
same,average tumor size,"[5]; 10 ng, ID, Day 14",120 mm^2
same,tumor size increase from the previous measurement,"[5]; 10 ng, ID, Day 14",56%
same,average tumor size,"[5]; 10 ng, ID, Day 18",112 mm^2
same,tumor size decrease from the previous measurement,"[5]; 10 ng, ID, Day 18",6%
same,average tumor size,"[5]; 10 ng, ID, Day 21",250 mm^2
same,tumor size increase from the previous measurement,"[5]; 10 ng, ID, Day 21",121%
same,average tumor size,"[5]; 10 ng, IP, Day 11",68 mm^2
same,average tumor size,"[5]; 10 ng, IP, Day 14",113 mm^2
same,tumor size increase from the previous measurement,"[5]; 10 ng, IP, Day 14",63%
same,average tumor size,"[5]; 10 ng, IP, Day 18",206 mm^2
same,tumor size increase from the previous measurement,"[5]; 10 ng, IP, Day 18",82%
same,average tumor size,"[5]; 10 ng, IP, Day 21",262 mm^2
same,tumor size increase from the previous measurement,"[5]; 10 ng, IP, Day 21",27%
same,final average ID tumor size smaller than IP,"[5]; 100 ng, Day 21",47%
same,average tumor size,"[5]; 100 ng, ID, Day 11",54 mm^2
same,average tumor size,"[5]; 100 ng, ID, Day 14",75 nm^2
same,tumor size increase from the previous measurement,"[5]; 100 ng, ID, Day 14",39%
same,average tumor size,"[5]; 100 ng, ID, Day 21",142 mm^2
same,tumor size increase,"[5]; 100 ng, ID",89%
same,average tumor size,"[5]; 100 ng, IP, Day 11",70 mm^2
same,average tumor size,"[5]; 100 ng, IP, Day 14",126 mm^2
same,tumor size increase from the previous measurement,"[5]; 100 ng, IP, Day 14",80%
same,average tumor size,"[5]; 100 ng, IP, Day 21",302 mm^2
same,tumor size increase,"[5]; 100 ng, IP",139%
same,effectiveness relative to other conditions,[6]; 100 ng ID contralateral side,"not as effective as those dosed near the tumor, but were better than the IP condition"
same,tumor size,"[6]; 100 ng ID contralateral side (IDcs), Day 14",75 mm^2
same,overall tumor growth reduction,[6]; 100 ng ID near the tumor injection site,greatest reduction in overall tumor growth
same,tumor size,"[6]; 100 ng ID tumor side (IDts), Day 14",75 mm^2
same,tumor size increase,"[6]; 100 ng IDcs, Day 14 to Day 18",91%
same,tumor size,"[6]; 100 ng IDcs, Day 18",43 mm^2
same,tumor size increase,"[6]; 100 ng IDcs, Day 18 to Day 21",29%
same,tumor size increase,"[6]; 100 ng IDts, Day 14 to Day 18",68%
same,tumor size,"[6]; 100 ng IDts, Day 18",126 mm^2
same,tumor size increase,"[6]; 100 ng IDts, Day 18 to Day 21",14%
same,tumor size,"[6]; 100 ng IDts, Day 21",142 mm^2
same,final tumor size for IDts smaller than IDcs,"[6]; 100 ng, Day 21",23%
same,"Mean (tumor measurement, length x width)","[7]; Day 18, ID 100 ng",62.29 mm^2
same,"Mean (tumor measurement, length x width)","[7]; Day 18, IP 100 ng",158.2458 mm^2
same,"Mean (tumor measurement, length x width)","[7]; Day 18, SC 100 ng",199.7379 mm^2
same,"Mean (tumor measurement, length x width)","[7]; Day 28, ID 100 ng",127.2 mm^2
same,"Mean (tumor measurement, length x width)","[7]; Day 28, IP 100 ng",383.7 mm^2
same,"Mean (tumor measurement, length x width)","[7]; Day 28, SC 100 ng",352.9 mm^2
same,inhibition of tumor growth,"[7]; ID delivery, 100 ng, only route with effect (FIG. 1)",significant effects on inhibiting the tumor growth
